Experimental data as given in US20220332758A1, “PEPTIDE-BASED COMPOSITIONS AND METHODS FOR TREATING ALZHEIMER'S DISEASE” (Board of Regents, The Universityof Texas System, priority 2019, published 2022).
Where no end group is shown, it is not given here. [ ]: non-standard residue; d: D form. Aib = CC(C)(N)C(=O)O

Target: human housekeeping core (20S) proteasome purified from erythrocytes (human), P60900
Assay: cell-based or functional assay

GRKKRRQ[Aib]GQRRKKRG [Tat5-8,9 Aib]
AC50, ChT-L activity (Suc-LLVY-MCA): 183 nM | Max activation fold, ChT-L activity: 8.9 fold
